Legend:
[1] = biological target: T1, vitronectin (UniProt P04004 20-478); assay: [^125I]-IGF-I bound to VN-coated wells (300 ng/well) with 5 ng IGFBP; IGFBP:VN binding read through labelled IGF-I
T1 construct: also called VN

[2] = biological target: T1, vitronectin; assay: [^125I]-IGF-I bound to VN-coated wells with 2 ng of the non-glycosylated IGFBP-3 mutant; IGFBP:VN binding read through labelled IGF-I

T1 sequence (P04004 20-478 limits assumed): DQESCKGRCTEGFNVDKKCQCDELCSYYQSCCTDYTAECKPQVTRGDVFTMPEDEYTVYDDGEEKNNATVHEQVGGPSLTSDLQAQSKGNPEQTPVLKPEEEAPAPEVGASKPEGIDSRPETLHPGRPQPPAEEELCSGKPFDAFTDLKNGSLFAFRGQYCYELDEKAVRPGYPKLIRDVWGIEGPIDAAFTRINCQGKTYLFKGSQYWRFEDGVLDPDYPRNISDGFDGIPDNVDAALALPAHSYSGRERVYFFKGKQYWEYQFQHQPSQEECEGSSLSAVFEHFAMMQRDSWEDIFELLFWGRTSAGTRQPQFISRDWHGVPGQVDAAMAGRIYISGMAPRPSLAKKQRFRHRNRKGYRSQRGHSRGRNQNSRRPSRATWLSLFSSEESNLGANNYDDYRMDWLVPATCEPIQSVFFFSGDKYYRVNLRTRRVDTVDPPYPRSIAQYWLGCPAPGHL

B1: recombinant IGFBP-4 produced in mammalian cells (other, UniProt P22692 22-258, looked up)
chain: DEAIHCPPCSEEKLARCRPPVGCEELVREPGCGCCATCALGLGMPCGVYTPRCGSGLRCYPPRGVEKPLHTLMHGQGVCMELAEIEAIQESLQPSDKDEGDHPNNSFSPCSAHDRRCLQKHFAKIRDRSTSGGKMKVNGAPREDARPVPQGSCQSELHRALERLAASQSRTHEDLYIIPIPNCDRNGNFHPKQCHPALDGQRGKCWCVDRKTGVKLPGGLEPKGELDCHQLADSFRE
fold increase in binding of labelled IGF-I to VN-coated wells against wells without IGFBP [1]: ~3.8 fold

B2: recombinant IGFBP-2 produced in mammalian cells (other, UniProt P18065 36-325, looked up)
chain: AEVLFRCPPCTPERLAACGPPPVAPPAAVAAVAGGARMPCAELVREPGCGCCSVCARLEGEACGVYTPRCGQGLRCYPHPGSELPLQALVMGEGTCEKRRDAEYGASPEQVADNGDDHSEGGLVENHVDSTMNMLGGGGSAGRKPLKSGMKELAVFREKVTEQHRQMGKGGKHHLGLEEPKKLRPPPARTPCQQELDQVLERISTMRLPDERGPLEHLYSLHIPNCDKHGLYNLKQCKMSLNGQRGECWCVNPNTGKLIQGAPTIRGDPECHLFYNEQQEARGVHTQRMQ
fold increase in binding of labelled IGF-I to VN-coated wells against wells without IGFBP [1]: ~2.8 fold

B3: IGFBP-3 glycosylation mutant (Non-gly IGFBP-3) (other, UniProt P17936 28-291, looked up)
chain: GASSAGLGPVVRCEPCDARALAQCAPPPAVCAELVREPGCGCCLTCALSEGQPCGIYTERCGSGLRCQPSPDEARPLQALLDGRGLCVAASAVSRLRAYLLPAPPAPGAASESEEDRSAGSVESPSVSSTHRVSDPKFHPLHSKIIIIKKGHAKDSQRYKVDYESQSTDTQAFSSESKRETEYGPCRREMEDTLNHLKFLNVLSPRGVHIPNCDKKGFYKKKQCRPSKGRKRGFCWCVDKYGQPLPGYTTKGKEDVHCYSMQSK
modifications: non-glycosylated (glycosylation sites mutated)
notes: they probably count on mature IGFBP-3; also called non-glycosylated IGFBP-3 mutant; mutant IGFBP-3
fold increase in binding of labelled IGF-I to VN-coated wells [2]: 20 fold

— patent US7785835 (QUEENSLAND UNIVERSITY OF TECHNOLOGY, dated 2010)
